# T1: MS2 coat protein (MCP)-SoxS R93A fusion, wild-type MCP (bacteriophage MS2)
# T1 chain: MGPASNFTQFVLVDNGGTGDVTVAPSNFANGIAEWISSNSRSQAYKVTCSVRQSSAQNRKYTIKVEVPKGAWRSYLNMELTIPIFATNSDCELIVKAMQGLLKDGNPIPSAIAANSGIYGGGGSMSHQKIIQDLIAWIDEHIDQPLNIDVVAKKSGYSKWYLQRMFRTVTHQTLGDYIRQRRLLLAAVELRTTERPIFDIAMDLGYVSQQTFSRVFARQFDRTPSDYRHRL
# B1: gRNA J1.3-MS2 aptamer scaffold (ssRNA)
# RNA: UUAUCACCUUGGCUGCAGGCGUUUUAGAGCUAGAAAUAGCAAGUUAAAAUAAGGCUAGUCCGUUAUCAACUUGAAAAAGUGCGCACAUGAGGAUCACCCAUGUGCUUUUUU
# Experiments:
# [1] = system: MS2 coat protein (MCP)-SoxS R93A fusion (bacteriophage MS2); assay: ELONA; conditions: protein coated at 10 ug/mL; aptamer 0.25-2500 nM
# [2] = system: MCP T45L-SoxS R93A T45L (bacteriophage MS2); assay: cell_activity; conditions: E. coli CRISPRa; some function retained
# [3] = target: T1, MS2 coat protein (MCP)-SoxS R93A …; assay: cell_activity; CRISPRa in E. coli with dCas9, J1 promoter-GFP reporter; conditions: tags: fused to SoxS(R93A); MS2 hairpin in sgRNA scaffold
# Description: To test the ability of the CRISPR system to accommodate the insertion of an RNA aptamer motif into the sgRNA and allow for locus-specific effector recruitment in E. coli cells, a construct was first designed to insert a known RNA aptamer against bacteriophage MS2 coat protein (MCP) into the tetraloop region of sgRNA (FIG. 3A, SEQ ID NO. 8). Correspondingly, MCP was fused with the SoxS transcriptional activator. Three plasmids (SP, AP, and RP) were designed to introduce into the cell the sgRNA-aptamer chimera, the MCP-SoxS fusion along with dCas9 (SEQ ID NO. 10), and a synthetic reporter construct, respectively (FIG. 4). Following a design principle established by a previous study, the synthetic reporter was constructed to control the expression of enhanced green fluorescent protein (eGFP) by CRISPR co-localized with RNA polymerase through aptamer-MCP interaction (FIG. 3B). This synthetic reporter construct contained a weak promoter and multiple protospacer sequences to be targeted by sgRNA to control levels of gene activation (FIG. 5A).
# The distance of the sgRNA target from the transcription start site was also tested by using this reporter. […] Low GFP levels were also observed when an off-target gRNA was used that had no binding site on the J1 synthetic promoter. […]
molecule,measurement,setting,value
MS2 aptamer,Kd,[1],26.3 nM
UUAUCACCUUGGCUGCAGGCGUUUUAGAGCUAGAAAUAGCAAGUUAAAAUAAGGCUAGUCCGUUAUCAACUUGAAAAAGUGCGCACAUGAGGAUCACCCAUGUGCUUUUUU [gRNA J1.3-MS2 aptamer scaffold],binding signal (fold GFP decrease vs wild-type MCP),[2],23
B1,activity,[3],56 fold GFP increase
